This note sets out measurements from US20260125443A1 (APRILBIO, published 2026).

The target of assay [1] is T1, human serum albumin (human, UniProt P02768 25-609).
T1 construct: Immobilised on an AR2G biosensor; also called HSA; human serum albumin (Sigma)
As to the kind of experiment: BLI (Octet Red), HSA immobilised on AR2G sensor, pH 6.0. How it is done:
(§1) By using Bio-Layer Interferometry (BLI) and Octet® BLI systems (Octet® Red, Sartorius, Germany), the binding ability of the SAFA-FSH protein to human serum albumin was analyzed. On an AR2G biosensor chip (Sartorius, Germany), human serum albumin (Sigma) was immobilized at a concentration of 30 μg/mL with a 10 mM acetate buffer pH 5.0, and the SAFA-FSH protein was added thereto at concentrations of 6.25 nM, 3.125 nM, 1.56 nM, and 0.78 nM (association: 600 s, dissociation: 900 s), so as to confirm the binding ability between the two under conditions of pH 7.4 or pH 6.0 conditions.
For orientation: Biolayer interferometry detects binding as a change in optical thickness at a sensor tip.

Assay [2] addresses T1, human serum albumin. As to the kind of experiment: BLI (Octet Red), HSA immobilised on AR2G sensor, pH 7.4. How it is done: as §1
Assay [3] has as its target T2, human follicle stimulating hormone receptor (human, UniProt P23945 18-695).
T2 construct: whole, on cells; also called human FSHR; human FSH receptor
T2 sequence (looked up): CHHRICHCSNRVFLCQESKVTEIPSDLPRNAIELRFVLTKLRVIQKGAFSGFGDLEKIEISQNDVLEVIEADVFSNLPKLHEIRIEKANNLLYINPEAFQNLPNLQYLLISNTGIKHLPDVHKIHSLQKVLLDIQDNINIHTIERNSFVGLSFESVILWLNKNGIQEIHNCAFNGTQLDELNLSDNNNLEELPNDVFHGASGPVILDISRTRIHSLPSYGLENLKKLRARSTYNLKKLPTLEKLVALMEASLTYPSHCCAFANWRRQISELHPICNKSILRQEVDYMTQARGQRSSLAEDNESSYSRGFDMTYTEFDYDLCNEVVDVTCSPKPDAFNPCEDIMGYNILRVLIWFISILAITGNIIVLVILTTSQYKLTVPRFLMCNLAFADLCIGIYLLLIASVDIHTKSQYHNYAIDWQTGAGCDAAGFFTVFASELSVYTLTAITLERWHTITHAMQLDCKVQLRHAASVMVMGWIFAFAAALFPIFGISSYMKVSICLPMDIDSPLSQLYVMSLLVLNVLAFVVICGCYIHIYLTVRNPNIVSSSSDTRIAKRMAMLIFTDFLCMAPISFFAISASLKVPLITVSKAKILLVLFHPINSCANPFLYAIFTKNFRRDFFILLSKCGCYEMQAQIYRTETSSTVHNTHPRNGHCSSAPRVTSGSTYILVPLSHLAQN
As to the kind of experiment: flow cytometry on human FSHR stable HEK293 cells, detection with goat anti-human IgG Fd-FITC. How it is done:
By using a human FSHR stable cell line (HEK293, Creative Biogene, USA) expressing human FSH receptors on the surface, the binding between the SAFA-FSH protein and the FSH receptors was analyzed with a CytoFLEX flow cytometer (Beckman Coulter, USA).
Subsequently, the binding between the SAFA-FSH protein and the human FSHR was confirmed by using the human FSHR stable cell line in which the expression of human FSHR was confirmed. Specifically, the human FSHR stable cells were dissolved in MACS buffer (PBS containing 0.5% BSA and 2 mM EDTA) at a concentration of 1×10⁶ cells/ml, and then added in an amount of 100 μl (1.0×10⁵ cells/test) to a 1.7 ml tube. The cells were then centrifuged at 500×g at 4° C. for 5 minutes. After removing the supernatant from the 1.7 ml tube, 100 μl each of the SAFA-FSH protein and the SL335 fragment that were diluted with MACS buffer at a concentration from 1,000 nM to 0.064 nM was added to the same tube to proceed a reaction at 4° C. for 30 minutes. After 500 μl of MACS buffer was added to the tube and the cells were centrifuged at 500×g at 4° C. for 5 minutes, the supernatant was removed therefrom to remove unbound proteins. 100 μl of goat anti-human IgG Fd-FITC (Southern Biotech, USA) antibody diluted with MACS buffer at a ratio of 1:500 was added to the tube to proceed a reaction at 4° C. for 30 minutes. […]
On the technique in general: Flow cytometry measures light scatter and fluorescence of single cells or particles in a stream.

T1 sequence (P02768 25-609 limits assumed): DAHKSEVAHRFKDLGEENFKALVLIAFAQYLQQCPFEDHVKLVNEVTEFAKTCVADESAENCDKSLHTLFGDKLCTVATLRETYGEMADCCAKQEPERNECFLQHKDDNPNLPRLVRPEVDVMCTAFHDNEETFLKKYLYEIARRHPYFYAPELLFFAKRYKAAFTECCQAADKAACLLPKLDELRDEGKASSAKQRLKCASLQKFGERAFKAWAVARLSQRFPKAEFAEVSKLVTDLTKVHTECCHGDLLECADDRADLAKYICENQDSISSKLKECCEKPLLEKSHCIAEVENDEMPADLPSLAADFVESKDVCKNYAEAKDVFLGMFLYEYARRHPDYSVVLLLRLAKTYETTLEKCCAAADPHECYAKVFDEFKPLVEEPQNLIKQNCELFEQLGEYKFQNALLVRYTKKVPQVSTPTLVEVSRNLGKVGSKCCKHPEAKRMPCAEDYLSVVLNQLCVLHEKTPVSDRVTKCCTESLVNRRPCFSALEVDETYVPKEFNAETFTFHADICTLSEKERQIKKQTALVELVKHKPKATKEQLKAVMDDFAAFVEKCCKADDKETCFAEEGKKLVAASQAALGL

B1: SAFA-FSH-B protein (other)
heavy: QVQLVQSGGGPVKPGGSLRLSCAASGFMFRAYSMNWVRQAPGKGLEWVSSISSSGRYIHYADSVKGRFTISRDNAKNSLYLQMNSLRAEDTAVYYCARETVMAGKALDYWGQGTLVTVSSASTKGPSVFPLAPSSKSTSEGTAALGCLVKDYFPEPVTVSWNSGALTSGVHTFPAVLQSSGLYSLSSVVTVPSSSLGTQTYICNVNHKPSNTKVDKKVEPKSSGGGGSGGGGSGGGGSNSCELTNITIAIEKEECRFCISINTTWCAGYCYTRDLVYKDPARPKIQKTCTFKELVYETVRVPGCAHHADSLYTYPVATQCHCGKCDSDSTDCTVRGLGPSYCSFGEMKE
light: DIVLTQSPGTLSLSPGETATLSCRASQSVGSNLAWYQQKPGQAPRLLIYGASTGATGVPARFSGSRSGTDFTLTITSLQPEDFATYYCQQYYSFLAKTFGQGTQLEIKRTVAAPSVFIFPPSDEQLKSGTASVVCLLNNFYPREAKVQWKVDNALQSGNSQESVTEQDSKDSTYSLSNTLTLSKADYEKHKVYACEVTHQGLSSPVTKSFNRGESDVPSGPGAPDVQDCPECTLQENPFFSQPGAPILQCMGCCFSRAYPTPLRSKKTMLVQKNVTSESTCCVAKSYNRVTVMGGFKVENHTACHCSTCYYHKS
notes: Anti-serum-albumin Fab SL335 with hFSH beta on the C-terminus of CH1 and hFSH alpha on the C-terminus of CL; also called SAFA-FSH protein; recombinant fusion protein
In the assay with human serum albumin [1], B1 had a Kd of 0.313 nM, a koff of 0.000149 s⁻¹ and an association rate constant (kon) of 475000 M⁻¹ s⁻¹. In addition, in the assay with human serum albumin [2], the Kd turned out to be 0.359 nM, the off-rate (koff) was 0.000136 s⁻¹ and the on-rate (kon) is 379000 M⁻¹ s⁻¹.

B2: SL335 fragment (Fab, V domains shown)
VH: QVQLVQSGGGPVKPGGSLRLSCAASGFMFRAYSMNWVRQAPGKGLEWVSSISSSGRYIHYADSVKGRFTISRDNAKNSLYLQMNSLRAEDTAVYYCARETVMAGKALDYWGQGTLVTVSS
VL: DIVLTQSPGTLSLSPGETATLSCRASQSVGSNLAWYQQKPGQAPRLLIYGASTGATGVPARFSGSRSGTDFTLTITSLQPEDFATYYCQQYYSFLAKTFGQGTQLEIKR
notes: Fab without FSH, used as the control in the FSHR flow cytometry assay; also called human anti-serum albumin Fab antibody fragment
On to B2, for which the binding result in assay [3] is given as “no binding (tested: 1000 nM)”.

The Kd is the concentration at which binding is half-saturated. Read a low Kd as higher affinity. In general, koff refers to the rate constant with which the complex falls apart. Low readings indicate slow dissociation, high ones fast dissociation. As a reminder, the kon is the second-order rate constant of association.
